Laboratory results reported in the supplement of paper PMC11780869.

What follows are sequences tested on Bacillus subtilis (assay: cleaved RNA product abundance (RNA/gDNA barcode ratio) relative to median wild-type variant (ratio to wild type); higher = more accumulation of the downstream cleavage product). Conditions: experiment (reporter, strain, medium): exp 8a: truncated aprE reporter, strain BJT201 with 2% xylose (RNase J1 expressed); cleavage site: glnRA (positions -5 to +31 mutated).
Summary of the method: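 Cleaved product abundance was measured with barcoded reporter mRNAs (truncated aprE or tetM) carrying mutagenized RNase Y cleavage-site windows in the B. subtilis chromosome. Cultures in LB at 37°C grew from OD600 0.0003 to 0.3. Gel-selected cleaved RNA was reverse transcribed and barcode-sequenced with genomic DNA barcodes, and the RNA:gDNA barcode ratio per construct was scaled to the median construct bearing the unmutated site.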
In the case of “CGACATGTCCCGCTTCTTTCATTAATCCGTTAGCAACTGTTTCACTATATACATTTACCTTTTAAGAGGAGGAAT”, the “cleaved RNA product abundance” value is reported as 0.694. For “CGACATGTCCCGCTTCTTTCATTAATCCGTTAGCAACTGTTTCGCTATACACATTTACCTTTTAAGAGGAGGAAT”, the “cleaved RNA product abundance” value was 0.222. For “CGACATGTCCCGCTTCTTTCATTAATCCGTTAGCAACTGTTTCGCTATATACATGTACCTTTTAAGAGGAGGAAT”, the “cleaved RNA product abundance” value was 0.361. “CGACATGTCCCGCTTCTTTCATTAATCCGTTAGCAACTGTTTCGCTATATACATTTACCTTTTAAGAGGAGGAAT” was tested, and the “cleaved RNA product abundance” value was 0.358. With “CGACATGTCCCGCTTCTTTCATTAATCCGTTAGCAACTGTTTCGCTTTATACATTTACCTTTTAAGAGGAGGAAT” the “cleaved RNA product abundance” value was 0.267. For “CGACATGTCCCGCTTCTTTCATTAATCCGTTAGCAACTGTTTCGTTATATACATTTACCTTTTAAGAGGAGGAAT”, the “cleaved RNA product abundance” value was 0.222. With “CGACATGTCCCGCTTCTTTCATTAATCCGTTAGCAACTGTTTGACTATATACATTTACCTTTTAAGAGGAGGAAT” the “cleaved RNA product abundance” value was 0.605. “CGACATGTCCCGCTTCTTTCATTAATCCGTTAGCAACTGTTTGCTATATACATTTACCTTTTAAGAGGAGGAATT” was tested, and the “cleaved RNA product abundance” value was 1.42. “CGACATGTCCCGCTTCTTTCATTAATCCGTTAGCAACTGTTTGGCAATATACATTTACCTTTTAAGAGGAGGAAT” was tested, and the “cleaved RNA product abundance” value was 0.499. With “CGACATGTCCCGCTTCTTTCATTAATCCGTTAGCAACTGTTTGGCTATAAACATTTACCTTTTAAGAGGAGGAAT” the “cleaved RNA product abundance” value was 0.327. “CGACATGTCCCGCTTCTTTCATTAATCCGTTAGCAACTGTTTGGCTATATAAATTTACCTTTTAAGAGGAGGAAT” was tested, and the “cleaved RNA product abundance” value was 0.518. For “CGACATGTCCCGCTTCTTTCATTAATCCGTTAGCAACTGTTTGGCTATATACAATTACCTTTTAAGAGGAGGAAT”, the “cleaved RNA product abundance” value was 0.279. With “CGACATGTCCCGCTTCTTTCATTAATCCGTTAGCAACTGTTTGGCTATATACATTTAACTTTTAAGAGGAGGAAT” the “cleaved RNA product abundance” value was 0.488. “CGACATGTCCCGCTTCTTTCATTAATCCGTTAGCAACTGTTTGGCTATATACATTTACATTTTAAGAGGAGGAAT” was tested, and the “cleaved RNA product abundance” value was 0.339. For “CGACATGTCCCGCTTCTTTCATTAATCCGTTAGCAACTGTTTGGCTATATACATTTACCGTTTAAGAGGAGGAAT”, the “cleaved RNA product abundance” value was 0.403. “CGACATGTCCCGCTTCTTTCATTAATCCGTTAGCAACTGTTTGGCTATATACATTTACCTTTTAAGAGGAGGAAT” was tested, and the “cleaved RNA product abundance” value was 0.493. For “CGACATGTCCCGCTTCTTTCATTAATCCGTTAGCAACTGTTTGGCTATATACATTTACGTTTTAAGAGGAGGAAT”, the “cleaved RNA product abundance” value was 0.403. “CGACATGTCCCGCTTCTTTCATTAATCCGTTAGCAACTGTTTGGCTATATATATTTACCTTTTAAGAGGAGGAAT” was tested, and the “cleaved RNA product abundance” value was 0.546. “CGACATGTCCCGCTTCTTTCATTAATCCGTTAGCAACTGTTTTAAAATATACATTTACCTTTTAAGAGGAGGAAT” was tested, and the “cleaved RNA product abundance” value was 0.571. “CGACATGTCCCGCTTCTTTCATTAATCCGTTAGCAACTGTTTTAATATATACATTTACCTTTTAAGAGGAGGAAT” was tested, and the “cleaved RNA product abundance” value was 0.589. In the case of “CGACATGTCCCGCTTCTTTCATTAATCCGTTAGCAACTGTTTTACAATATACATTTACCTTTTAAGAGGAGGAAT”, the “cleaved RNA product abundance” value is reported as 0.534. For “CGACATGTCCCGCTTCTTTCATTAATCCGTTAGCAACTGTTTTACGATATACATTTACCTTTTAAGAGGAGGAAT”, the “cleaved RNA product abundance” value was 0.559. With “CGACATGTCCCGCTTCTTTCATTAATCCGTTAGCAACTGTTTTACTAAATACATTTACCTTTTAAGAGGAGGAAT” the “cleaved RNA product abundance” value was 0.499. With “CGACATGTCCCGCTTCTTTCATTAATCCGTTAGCAACTGTTTTACTATAAACATTTACCTTTTAAGAGGAGGAAT” the “cleaved RNA product abundance” value was 0.553. For “CGACATGTCCCGCTTCTTTCATTAATCCGTTAGCAACTGTTTTACTATATAAATTTACCTTTTAAGAGGAGGAAT”, the “cleaved RNA product abundance” value was 0.596.
